According to US20140106371A1 (DUBLIN CITY UNIVERSITY, published 2014):

B1: H50E (rPA-ILNm protein) (other)
chain: RGSHHHHHHGSMAWKGEVLANNEAGQVTSIIYNPGDVITIVAAGWASYGPTQKWGPQGDREEPDQGLICHDAFCGALVMKIGNSGTIPVNTGLFRWVAPNNVQGAITLIYNDVPGTYGNNSGSFSVNIGKDQS
B2: H50Q (rPA-ILNm protein) (other)
chain: RGSHHHHHHGSMAWKGEVLANNEAGQVTSIIYNPGDVITIVAAGWASYGPTQKWGPQGDREQPDQGLICHDAFCGALVMKIGNSGTIPVNTGLFRWVAPNNVQGAITLIYNDVPGTYGNNSGSFSVNIGKDQS
B3: H50T (rPA-ILNm protein) (other)
chain: RGSHHHHHHGSMAWKGEVLANNEAGQVTSIIYNPGDVITIVAAGWASYGPTQKWGPQGDRETPDQGLICHDAFCGALVMKIGNSGTIPVNTGLFRWVAPNNVQGAITLIYNDVPGTYGNNSGSFSVNIGKDQS
B4: H50V (rPA-ILNm protein) (other)
chain: RGSHHHHHHGSMAWKGEVLANNEAGQVTSIIYNPGDVITIVAAGWASYGPTQKWGPQGDREVPDQGLICHDAFCGALVMKIGNSGTIPVNTGLFRWVAPNNVQGAITLIYNDVPGTYGNNSGSFSVNIGKDQS
B5: H50P (rPA-ILNm protein) (other)
chain: RGSHHHHHHGSMAWKGEVLANNEAGQVTSIIYNPGDVITIVAAGWASYGPTQKWGPQGDREPPDQGLICHDAFCGALVMKIGNSGTIPVNTGLFRWVAPNNVQGAITLIYNDVPGTYGNNSGSFSVNIGKDQS
B6: H50L (rPA-ILNm protein) (other)
chain: RGSHHHHHHGSMAWKGEVLANNEAGQVTSIIYNPGDVITIVAAGWASYGPTQKWGPQGDRELPDQGLICHDAFCGALVMKIGNSGTIPVNTGLFRWVAPNNVQGAITLIYNDVPGTYGNNSGSFSVNIGKDQS
B7: H50K (rPA-ILNm protein) (other)
chain: RGSHHHHHHGSMAWKGEVLANNEAGQVTSIIYNPGDVITIVAAGWASYGPTQKWGPQGDREKPDQGLICHDAFCGALVMKIGNSGTIPVNTGLFRWVAPNNVQGAITLIYNDVPGTYGNNSGSFSVNIGKDQS
B8: H50A (rPA-ILNm protein) (other)
chain: AWKGEVLANNEAGQVTSIIYNPGDVITIVAAGWASYGPTQKWGPQGDREAPDQGLICHDAFCGALVMKIGNSGTIPVNTGLFRWVAPNNVQGAITLIYNDVPGTYGNNSGSFSVNIGKDQS
notes: not shown: N-terminal RGS-6HIS tag and added vector residues (pQE30)
B9: H50R (rPA-ILNm protein) (other)
chain: AWKGEVLANNEAGQVTSIIYNPGDVITIVAAGWASYGPTQKWGPQGDRERPDQGLICHDAFCGALVMKIGNSGTIPVNTGLFRWVAPNNVQGAITLIYNDVPGTYGNNSGSFSVNIGKDQS
notes: as for B8
B10: H50S (rPA-ILNm protein) (other)
chain: AWKGEVLANNEAGQVTSIIYNPGDVITIVAAGWASYGPTQKWGPQGDRESPDQGLICHDAFCGALVMKIGNSGTIPVNTGLFRWVAPNNVQGAITLIYNDVPGTYGNNSGSFSVNIGKDQS
notes: as for B8
B11: H50F (rPA-ILNm protein) (other)
chain: AWKGEVLANNEAGQVTSIIYNPGDVITIVAAGWASYGPTQKWGPQGDREFPDQGLICHDAFCGALVMKIGNSGTIPVNTGLFRWVAPNNVQGAITLIYNDVPGTYGNNSGSFSVNIGKDQS
notes: as for B8

Each binder was assayed against T1, asialotransferrin (human, UniProt P02787 20-698, N-linked glycans desialylated with neuraminidase (Clostridium perfingens), exposing terminal LacNAc (β1,4-linked galactose); partially desialylated by paragraph 70) (assay: qualitative ELLA).
T1 construct: Same polypeptide as transferrin; differs only in glycans; also called AsT
T1 sequence (P02787 20-698 limits assumed): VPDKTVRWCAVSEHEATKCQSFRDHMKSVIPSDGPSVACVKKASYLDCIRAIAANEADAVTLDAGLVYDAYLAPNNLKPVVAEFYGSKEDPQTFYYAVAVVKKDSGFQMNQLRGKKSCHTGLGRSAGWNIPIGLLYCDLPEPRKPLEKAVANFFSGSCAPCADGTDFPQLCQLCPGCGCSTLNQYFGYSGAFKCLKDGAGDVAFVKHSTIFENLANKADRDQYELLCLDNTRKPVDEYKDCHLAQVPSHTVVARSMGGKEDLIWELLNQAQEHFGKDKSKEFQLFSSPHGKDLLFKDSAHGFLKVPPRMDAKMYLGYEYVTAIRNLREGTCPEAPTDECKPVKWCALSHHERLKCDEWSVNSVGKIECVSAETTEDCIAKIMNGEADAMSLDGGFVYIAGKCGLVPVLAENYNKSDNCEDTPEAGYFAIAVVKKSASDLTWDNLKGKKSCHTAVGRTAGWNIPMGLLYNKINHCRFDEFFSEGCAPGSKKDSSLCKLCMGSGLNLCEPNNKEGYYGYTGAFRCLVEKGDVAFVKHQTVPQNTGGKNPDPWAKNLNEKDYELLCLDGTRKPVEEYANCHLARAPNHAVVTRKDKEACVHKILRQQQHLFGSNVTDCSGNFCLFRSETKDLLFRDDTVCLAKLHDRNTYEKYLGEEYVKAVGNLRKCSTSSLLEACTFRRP

| Binder | binding result |
| --- | --- |
| B1 | no binding (tested: 2 µg mL^-1) |
| B2 | no binding (tested: 2 µg mL^-1) |
| B3 | no binding (tested: 2 µg mL^-1) |
| B4 | no binding (tested: 2 µg mL^-1) |
| B5 | no binding (tested: 2 µg mL^-1) |
| B6 | no binding (tested: 2 µg mL^-1) |
| B7 | no binding (tested: 2 µg mL^-1) |
| B8 | no binding (tested: 2 µg mL^-1) |
| B9 | no binding (tested: 2 µg mL^-1) |
| B10 | no binding (tested: 2 µg mL^-1) |
| B11 | no binding (tested: 2 µg mL^-1) |
